{"source": "patent CN111333724A", "about": "(INST MILITARY MEDICINE ACADEMY MILITARY SCIENCES PLA, dated 2020)", "binders": {"B1": {"name": "YG11-1抗体 (antibody, V domains shown)", "VH": "QVQLVESGGGVVQPGRSLRLSCAASGFSLSDHAVHWVRQAPGKGLEWVALISYDGSDKYYKDSVKGRFTISRDNPKNTLYLQMTSLKPEDTAVYYCARQGGNKNINYFFQYLDVWGQGTMVTVSS", "VL": "DIVMTQTPSSLSASVGDRVNISCRASQTISNHLNWYLQKPGKAPKLLIYDASSLESGVPSRFSGSGSGTDFTLTISSLQPEDFATYYCQQFINYPPTFGPGTKLEIKR"}}, "key": {"His-SEB蛋白 [1]": {"target": "T1, His-SEB蛋白 (Staphylococcus aureus, UniProt P01552 28-266)", "T1 sequence": "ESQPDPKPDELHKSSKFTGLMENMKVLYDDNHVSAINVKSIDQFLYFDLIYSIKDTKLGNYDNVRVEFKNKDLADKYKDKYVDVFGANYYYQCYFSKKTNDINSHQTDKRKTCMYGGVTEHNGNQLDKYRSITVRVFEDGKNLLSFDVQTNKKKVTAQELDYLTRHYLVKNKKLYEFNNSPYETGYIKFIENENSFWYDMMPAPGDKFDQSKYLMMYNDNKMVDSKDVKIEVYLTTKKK"}, "His-SEB蛋白 [2]": {"target": "T1, His-SEB蛋白", "remark": "listed apart in the source"}}, "data": [{"binder": "B1", "values": [{"measurement": "EC50", "setting": "His-SEB蛋白 [1]", "value": 0.013, "unit": "µg/mL"}, {"measurement": "Kd", "setting": "His-SEB蛋白 [2]", "value": 16.6, "unit": "nM"}, {"measurement": "koff", "setting": "His-SEB蛋白 [2]", "value": 0.0169, "unit": "s⁻¹"}, {"measurement": "kon", "setting": "His-SEB蛋白 [2]", "value": "1.02e+06", "unit": "M⁻¹ s⁻¹"}]}]}
